Assays:
[1] = target: human full-length EGF receptor (human) (UniProt P00533)
EGFRvIII (human) [2] = target: EGFRvIII (human) (UniProt P00533)
EGFRvIII (human) [3] = target: EGFRvIII (human) (UniProt P00533); remark: listed apart in the source
[4] = target: human full-length EGF receptor (human) (UniProt P00533); remark: listed apart in the source
[5] = target: human full-length EGF receptor (human) (UniProt P00533); remark: listed apart in the source

Substance	IC50 of cell killing, DH-EGFR-E cells, 40 h [1]	IC50 of cell killing, DH-EΔ801-P cells, 40 h (EGFRvIII (human) [2])	IC50 of cell killing, DH-EΔ801-5 cells, 40 h (EGFRvIII (human) [3])	IC50 of cell killing, SKBR3 cells, 40 h [4]	competition of TGFα-ETA (100 ng/ml) cytotoxicity by 10 µg/ml scFv, 40 h; MDA-MB468 cells (also A431 and SKBR3) (% cell killing) [5]
TGFα-ETA (from UniProt P01135)	42 ng/mL	0.7 µg/mL	> 1 µg/mL	90 ng/mL	
scFv(225)					63

From patent publication US5942602
